Legend:
[1] = molecular target: monomeric alpha-synuclein (UniProt P37840 1-140); test: SPR, captured mAb
Protocol: (§1) Non-covalent immobilization of alpha-synuclein antibodies was performed using a target immobilization method of 2000 response units (RU). Antibodies were diluted in 10 mM sodium acetate pH 5.5 (GE Healthcare, BR-1003-52) to a final concentration of 5 μg/mL.
(§2) Binding affinity of alpha-synuclein antibodies to monomeric or fibrillar alpha-synuclein species was performed using a single-cycle kinetics method. The instrument was primed with 1×HBS-P+ buffer (10× stock from GE Healthcare, BR-1003-52 diluted in Milli-Q water). Injections of monomeric alpha-synuclein (aSyn) (Boston Biochem, SP-485), increasing in concentration from 0.62-50 nM prepared from serial 2-fold dilutions, were performed with contact times of 300 sec/injection at a flow rate of 30 μL/min. A dissociation phase of 900 sec followed the final 50 nM injection. Regeneration of the sensor to the goat anti-mouse antibody layer was achieved using 3 regenerations of 10 mM Glycine pH 1.7. […] Regeneration of the sensor to the goat anti-mouse antibody layer was achieved using 3 regenerations of 10 mM Glycine pH 1.7. Results obtained from single-cycle kinetics were evaluated by Biacore T200 evaluation software with 1:1 binding homogenous Langmuir model (with a global Rmax) with Cycle 5 as a blank subtraction. The following kinetic parameters were obtained: on-rate (ka), off-rate (kd), affinity constant (KD, ratio of kd by ka), maximum response (Rmax), and goodness of fit (Chi2).
(§3) Non-covalent capture of the alpha-synuclein antibodies was performed in three separate runs.

alpha-synuclein fibrils = alpha-synuclein fibrils (UniProt P37840 1-140); test: SPR, captured mAb
Protocol: as §1, §2, §3

Row | Binder | Kd [1] [nM] | koff [1] [s⁻¹] | kon [1] [M⁻¹ s⁻¹] | Kd (alpha-synuclein fibrils) [nM] | koff (alpha-synuclein fibrils) [s⁻¹] | kon (alpha-synuclein fibrils) [M⁻¹ s⁻¹]
1 | ACI-7079-3112H1-Ab1 (antibody, V domains shown, mouse hybridoma mAb; VH/VL only; also called 3112H1F3) VH: EVQLQQSGPELVKPGASVKISCKASGYTFSDYFMNWVKQSHGKSLEWIGDINPNNGGSSYIQKFKGKATLTVDKSSTTAYMELRSLTSEDSAVYYCARGSNYAMDSWGQGTSVTVSS VL: DIVMSQSPSSLAVSAGEKVTMSCKSSQSLLNSRTRKNYLAWYQQKPGQSPKLLIYWASTRESGVPDRFTGSGSGTDFTLTISSVQAEDLAVYYCKQSYDLWTFGGGTKLEIK | 10.5 | 0.00225 | 214000 | 19.3 | 0.000216 | 11200
2 | ACI-7079-3106F2-Ab1 (antibody, V domains shown, mouse hybridoma mAb; VH/VL only; also called 3106F2C8) VH: EVQLQQSGAELVRPGASVKLSCTASGFNVKDDYMHWVKQRPEQGLEWIGWIDPENGDTEYASKFQGKATLTADTSSNTAYLQLSGLTSVDTAVYYCTTAGTSPYYFDYWGQGTTLTVSS VL: DIVMTQSQKFMSTSVGDRVSVTCKASQNVGTNVAWYQQKVGQSPKALIYSASYRYSGVPDRFTGSGSGTDFTLTISNVQSEDLADYFCQQYNSYPLTFGSGTKLEIK | 392 | 0.135 | 344000 | 31.5 | 0.000367 | 11700
3 | ACI-8030-6106F5-Ab1 (antibody, V domains shown, mouse hybridoma mAb; VH/VL only; also called 6106F5B10) VH: QVQLQQSGPELVKPGASVKISCKASGYSFTTYYIHWMKQRPGQGPEWIGWIYPGRGYTKYNEKFKDKAAQTADTSSNTAYMQLSSLRSEDSAVYYCARDWETGFPYWGQGTLVTVSA VL: DIVLTQSPASLAVSLGQRATISCKASQSVDYGGDSWLNWYQQKPGQPPKLLIYAASNLDSGIPARFGGSGSGTDFTLNIHPVEEEDAATYYCQQSGEDPFTFGGGTNLEIK | 1.95 | 0.00023 | 118000 | 16.7 | 0.000232 | 13900
4 | ACI-8032-6304F3-Ab1 (antibody, V domains shown, mouse hybridoma mAb; VH/VL only; also called 6304F3D12) VH: QVQLQQSGAELARPGASVKLSCKASGYTFTSYGVSWVKQRTGQGLEWIGEIYPRSGNTYYNEKFKGKATLTADKSSSTAYMELRSLTSEDSAVYFCASESYYGDYDWYFDVWGTGTTVTVSS VL: DVLMTQIPLSLPVSPGDQVSISCRSSQSIVHSNGNTYLEWYLQKPGQSPKPLIYKVSNRFSGVPDRFSGSGSGTDFTLKISRVEAEDLGVYYCFQGSHVPPTFGGGTKLEIK | 4.75 | 0.016 | 3.37e+06 | 40.6 | 0.000527 | 13000
5 | ACI-8032-6307F1-Ab2 (antibody, V domains shown, mouse hybridoma mAb; VH/VL only; also called 6307F1H10) VH: QVQLQQSGAELARPGASVKLSCKASGYTFTSYGMSWVKQRTGQGLEWIGEIYPRSGNTYYNEKFKGKATLTSDKSSSTSYMELRSLTSEDSAVYFCASESYYGDYAWYFDVWGTGTTVTVSS VL: DVLMTQTPLSLPVSLGDQASISCRSSQSVVHSNGITYLEWYLQKPGQSPKLLIYKVSNRFSGVPDRFSGSGSGTYFTLKISRVEAEDLGVYYCFQGSHVPPTFGGGTKLEIK | 19 | 0.0248 | 1.3e+06 | 26 | 0.000691 | 26500
6 | ACI-8031-6207G10-Ab1 (antibody, V domains shown, mouse hybridoma mAb; VH/VL only; also called 6207G10E6) VH: QVQLQQSGAELVKPGASVKISCKASGYAFSSYWMNWVKQRPGKGLEWIGQIYPGDGDTNYNGKFKGKATLTADRSSSTAYMQLSSLTSEDSAVYFCAITHYDYWGQGTTLTVSS VL: DILLTQSPAILSVSPGDRVSFSCRASQSIGTRIHWYQQRTNGSPRLLIKYASESISGTPSRFSGSGSGTDFTLSINSVESEDIADYYCQQSNSWPLTFGAGTKLELK | 3.67 | 0.000314 | 85300 | 13.3 | 0.00015 | 11300

The remaining binders from weak to strong by Kd [1], led by results:

Row | Kd [1] [nM] | koff [1] [s⁻¹] | kon [1] [M⁻¹ s⁻¹] | Kd (alpha-synuclein fibrils) [nM] | koff (alpha-synuclein fibrils) [s⁻¹] | kon (alpha-synuclein fibrils) [M⁻¹ s⁻¹] | Binder
7 | 606 | 0.000237 | 390 | 3350 | 0.000353 | – | ACI-8032-6301G2-Ab2 (antibody, V domains shown, mouse hybridoma mAb; VH/VL only; also called 6301G2D11) VH: EVQLQQSGPELVKPGASVKISCKASGYTFTDYFMNWVKQSHGKSLEWIGDINPNIGVTNYNPKFKDRATLTVDKSSSSAYMELRSLTSEDSTVYYCARGGGSNPLYYAMDYWGQGTSVTVSS VL: DIVMSQSPSSLAVSAGEKVTMSCKSSQSLLNSRTRKNYLAWYQQKPGQSPKLLIYWASTRESGVPDRFTGSGSGTDFTLTISSVQAEDLAVYFCKQSYDLWTFGGGTKLEIK
8 | 96.4 | 0.044 | 457000 | 37.9 | 0.000599 | 15800 | ACI-8033-6403A4-Ab1 (antibody, V domains shown, mouse hybridoma mAb; VH/VL only; also called 6403A4A3) VH: EVQLVESGGGLVQPKGSLKLSCAASGFSFNTYAMNWVRQAPGKGLEWVARIRSKSNNYTTYYADSVKDRFTISRDDSESMLYLQMNNLKTEDTAMYYCVRTMDYWGQGTSVTVSS VL: QIVLTQSPAIMSASLGEEITLTCSASSSISYMHWYQQKSGTSPKLLIHSTFNLASGVPSRFSGSGSGTFYSLTISSVEAEDAADYYCHQWSSYYTFGGGTKLEIK
9 | 16.7 | 0.0382 | 2.28e+06 | 41.5 | 0.000325 | 7830 | ACI-8032-6314A3-Ab3 (antibody, V domains shown, mouse hybridoma mAb; VH/VL only; also called 6314A3E4) VH: QVQLQQSGAELARPGASVKLSCKASGYTFTSYGVSWVKQRTGQGLEWIGEIYPRSGNTYYNEKFKGKATLTADKSSSTAYMELRSLTSEDSAVYFCASESYYGDYDWYFDVWGTGTTVTVSS VL: DVLMTQIPLSLPVSPGDQVFISCRSSQSIVHSNGNTYLEWYLQKPGQSPKPLIYKVSNRFSGVPDRFSGSGSGTDFTLKISRVEAEDLGVYYCFQGSHVPPTFGGGTKLEIK
10 | 11.5 | 0.00517 | 450000 | 2.69 | 0.000193 | 71800 | ACI-8032-6301A10-Ab2 (antibody, V domains shown, mouse hybridoma mAb; VH/VL only; also called 6301A10E12) VH: QVQLQQSGAELARPGASVKLSCKASGYTFTSYGISWVKQRTGQGLEWIGEIYPRSGNTYYNEKFKGKATLTADKSSSTAYMELRSLTSEDSAVYFCASESYYGDYDWYFDVWGTGTTVTVSS VL: DVLMTQTPLSLPVSLGDQASISCRSSHSIEHSNGNTYLEWCLQKPGQPPKFLIYKVSNRFSGVPDRFSGSGSGTDFTLRISRVEAEDLGVYYCFQGSHVPPTFGGGTKLEIK
11 | 8.76 | 0.00329 | 376000 | 42.8 | 0.00355 | 83000 | ACI-8032-6301C8-Ab2 (antibody, V domains shown, mouse hybridoma mAb; VH/VL only; also called 6301C8G12) VH: QVQLQQSGAELARPGTSVKLSCKASGYTFTTYGISWVKQRTGQGLEWIGEIYPRSGNTYYNEKFKGKATLTADKPSSTAYMELRSLTSEDSAVYFCASESYYGDYAWYFDVWGTGTTVTVSS VL: DVLMTQIPLSLPVSLGDQASISCRSSQSIVHSNGNTYLEWHLQKPGQSPKLLIYEVSNRFSGVPDRFSGSGSGTDFTLNISRVEAEDLGVYYCFQGSHVPPTFGGGTKLEIK
12 | 3.26 | 0.000651 | 200000 | 134 | 0.000987 | 7350 | ACI-8033-6402E2-Ab2 (antibody, V domains shown, mouse hybridoma mAb; VH/VL only; also called 6402E2E4) VH: EVQLQHSGPDLVKPGASVKISCKASGYTFTDYYMNWVKQSHGKSLEWIGDINPNNGDTTYNQKFKGRATLTVDKSSSTAYMELRSLTSEDSAVYYCARSGSNYYAMDSWGQGTSVTVSS VL: DIVMSQSPSSLAVSAGERVTMSCKSSQSLFNSRTRKNYLAWYQQKPGQSPKLLIYWASTRESGVPDRFTGSGSGTDFSLNISSVQAEDLAVYYCKQSYDLWTFGGGTKLEIK

Source: US20250340623A1 (AC IMMUNE, published 2025)
